Test results: publication PMC11289882 (2024)

Assays:
[1] = target: T1, CITED2 variant 3b 218-256 (Homo sapiens, UniProt Q99967, beta3-amino acid replacements in loop); assay: ITC
T1 chain: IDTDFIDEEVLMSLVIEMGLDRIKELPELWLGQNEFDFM

[2] = target: T2, CITED2 variant 3a 218-256 (Homo sapiens, UniProt Q99967, beta3-amino acid replacements in loop (LPEL motif)); assay: ITC
T2 chain: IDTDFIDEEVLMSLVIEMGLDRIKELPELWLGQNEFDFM

[3] = target: T3, CITED2 variant 2 218-256 (Homo sapiens, UniProt Q99967, beta3-amino acid replacements in αA helix); assay: ITC
T3 chain: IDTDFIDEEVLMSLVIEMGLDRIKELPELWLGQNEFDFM

[4] = target: T4, CITED2 variant 4 218-256 (Homo sapiens, UniProt Q99967, beta3-amino acid replacements in C-terminus); assay: ITC
T4 chain: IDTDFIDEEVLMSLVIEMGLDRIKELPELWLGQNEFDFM

[5] = target: T5, CITED2 variant 3c 218-256 (Homo sapiens, UniProt Q99967, beta3-amino acid replacements in loop); assay: ITC
T5 chain: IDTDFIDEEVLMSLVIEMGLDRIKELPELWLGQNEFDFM

[6] = target: T6, CITED2 variant 1 218-256 (Homo sapiens, UniProt Q99967, beta3-amino acid replacements in N-terminal tail); assay: ITC
T6 chain: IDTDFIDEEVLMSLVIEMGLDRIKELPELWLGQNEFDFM

[7] = target: T7, HIF-1α 776-826 (Homo sapiens, UniProt Q16665); assay: anisotropy
T7 chain: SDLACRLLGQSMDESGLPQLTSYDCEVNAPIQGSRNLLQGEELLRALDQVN

- Kd [1]: 98 nM
- Kd [2]: 675 nM
- Kd [3]: 16 nM
- Kd [4]: 17 nM
- Kd [5]: 29 nM
- Kd [6]: 19 nM
- Kd [7]: 57 nM
B1: p300 TAZ1 330-420 (protein)
chain: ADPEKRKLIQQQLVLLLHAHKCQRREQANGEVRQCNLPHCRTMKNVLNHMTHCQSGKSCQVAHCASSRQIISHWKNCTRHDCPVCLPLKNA
